Key:
HeLa Kyoto [1] = experiment: solubility change mitosis vs G1/S (difference of NP-40 vs SDS log2 ratios) (log2 ratio difference); higher = more soluble in mitosis
HeLa Kyoto [2] = experiment: solubility in G1/S (NP-40 vs SDS abundance) (log2 ratio); higher = more soluble; settings: cell cycle stage: G1/S
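Throughout, for solubility change mitosis vs G1/S (difference of NP-40 vs SDS log2 ratios): synchronized HeLa Kyoto cells (double thymidine block for G1/S, nocodazole release for mitosis), protein amounts in NP-40 versus SDS lysates quantified by mass spectrometry, three biological replicates.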
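Throughout, for solubility in G1/S (NP-40 vs SDS abundance): HeLa Kyoto cells arrested at G1/S by double thymidine block, proteins quantified by TMT10plex mass spectrometry in mild NP-40 versus SDS extracts, three biological replicates.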

Sequence	solubility change mitosis (log2) (HeLa Kyoto [1])	solubility in G1/S (log2) (HeLa Kyoto [2])
MVRDSMAAAFRPSNRVLLQALQILVYPGVGGSGSVSCRCPLGAKRYLLTDNVVKLKEFQQKKVAVACNLSGTKETYFRNLKKKLTQNKLILKGELITLLHLCESRDHVELAKNVIYRYHAENKNFTLGEYKFGPLFVRLCYELDLEESAVELMKDQHLRGFFSDSTSFNILMDMLFIKGKYKSALQVLIEMKNQDVKFTKDTYVLAFAICYKLNSPESFKICTTLREEALLKGEILSRRASCFAVALALNQNEMAKAVSIFSQIMNPESIACINLNIIIHIQSNMLENLIKTLKNAAEGNLSKFVKRHVFSEEVLAKVREKVKDVPALVAKFDEIYGTLHITGQVTTDSLDAVLCHTPRDRKSHTLLLNKRMVSRRTFQPLSQSLLAE [PTCD2]	0.106	-0.0152
MVRKLKFHEQKLLKQVDFLNWEVTDHNLHELRVLRRYRLQRREDYTRYNQLSRAVRELARRLRDLPERDQFRVRASAALLDKLYALGLVPTRGSLELCDFVTASSFCRRRLPTVLLKLRMAQHLQAAVAFVEQGHVRVGPDVVTDPAFLVTRSMEDFVTWVDSSKIKRHVLEYNEERDDFDLEA [IMP3]	1.1	-2.11
MVVPSLKLQDLIEEIRGAKTQAQEREVIQKECAHIRASFRDGDPVHRHRQLAKLLYVHMLGYPAHFGQMECLKLIASSRFTDKRVGYLGAMLLLDERHDAHLLITNSIKNDLSQGIQPVQGLALCTLSTMGSAEMCRDLAPEVEKLLLQPSPYVRKKAILTAVHMIRKVPELSSVFLPPCAQLLHERHHGILLGTITLITELCERSPAALRHFRKVVPQLVHILRTLVTMGYSTEHSISGVSDPFLQVQILRLLRILGRNHEESSETMNDLLAQVATNTDTSRNAGNAVLFETVLTIMDIRSAAGLRVLAVNILGRFLLNSDRNIRYVALTSLLRLVQSDHSAVQRHRPTVVECLRETDASLSRRALELSLALVNSSNVRAMMQELQAFLESCPPDLRADCASGILLAAERFAPTKRWHIDTILHVLTTAGTHVRDDAVANLTQLIGGAQELHAYSVRRLYNALAEDISQQPLVQVAAWCIGEYGDLLLAGNCEEIEPLQVDEEEVLALLEKVLQSHMSLPATRGYALTALMKLSTRLCGDNNRIRQVVSIYGSCLDVELQQRAVEYDTLFRKYDHMRAAILEKMPLVERDGPQADEEAKESKEAAQLSEAAPVPTEPQASQLLDLLDLLDGASGDVQHPPHLDPSPGGALVHLLDLPCVPPPPAPIPDLKVFEREGVQLNLSFIRPPENPALLLITITATNFSEGDVTHFICQAAVPKSLQLQLQAPSGNTVPARGGLPITQLFRILNPNKAPLRLKLRLTYDHFHQSVQEIFEVNNLPVESWQ [AP1G2]	-0.154	-0.0347
MWRGRAGALLRVWGFWPTGVPRRRPLSCDAASQAGSNYPRCWNCGGPWGPGREDRFFCPQCRALQAPDPTRDYFSLMDCNRSFRVDTAKLQHRYQQLQRLVHPDFFSQRSQTEKDFSEKHSTLVNDAYKTLLAPLSRGLYLLKLHGIEIPERTDYEMDRQFLIEIMEINEKLAEAESEAAMKEIESIVKAKQKEFTDNVSSAFEQDDFEEAKEILTKMRYFSNIEEKIKLKKIPL [HSCB]	0.307	0.296
MWRMRGGATRRGSCCGGDGAADGRGPGRSGRARGGGSPSGGGGGVGWRGRADGARQQLEERFADLAASHLEAIRARDEWDRQNARLRQENARLRLENRRLKRENRSLFRQALRLPGEGGNGTPAEARRVPEEASTNRRARDSGREDEPGSPRALRARLEKLEAMYRRALLQLHLEQRGPRPSGDKEEQPLQEPDSGLRSRDSEPSGPWL [TUSC1]	0.105	0.541
MWTADEIAQLCYEHYGIRLPKKGKPEPNHEWTLLAAVVKIQSPADKACDTPDKPVQVTKEVVSMGTGTKCIGQSKMRKNGDILNDSHAEVIARRSFQRYLLHQLQLAATLKEDSIFVPGTQKGVWKLRRDLIFVFFSSHTPCGDASIIPMLEFEDQPCCPVFRNWAHNSSVEASSNLEAPGNERKCEDPDSPVTKKMRLEPGTAAREVTNGAAHHQSFGKQKSGPISPGIHSCDLTVEGLATVTRIAPGSAKVIDVYRTGAKCVPGEAGDSGKPGAAFHQVGLLRVKPGRGDRTRSMSCSDKMARWNVLGCQGALLMHLLEEPIYLSAVVIGKCPYSQEAMQRALIGRCQNVSALPKGFGVQELKILQSDLLFEQSRSAVQAKRADSPGRLVPCGAAISWSAVPEQPLDVTANGFPQGTTKKTIGSLQARSQISKVELFRSFQKLLSRIARDKWPHSLRVQKLDTYQEYKEAASSYQEAWSTLRKQVFGSWIRNPPDYHQFK [ADAT1]	-0.0783	0.316

— the supplement of paper PMC5998384
